Series [1] relates to T1, AncDa04.
T1 sequence: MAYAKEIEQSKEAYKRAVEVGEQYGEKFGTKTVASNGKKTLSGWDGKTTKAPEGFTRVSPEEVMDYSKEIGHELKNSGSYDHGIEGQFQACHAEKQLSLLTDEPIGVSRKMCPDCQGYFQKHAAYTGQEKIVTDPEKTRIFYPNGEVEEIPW

Series [2] concerns T2, BaDa01 (Bacillus aerophilus).
T2 sequence: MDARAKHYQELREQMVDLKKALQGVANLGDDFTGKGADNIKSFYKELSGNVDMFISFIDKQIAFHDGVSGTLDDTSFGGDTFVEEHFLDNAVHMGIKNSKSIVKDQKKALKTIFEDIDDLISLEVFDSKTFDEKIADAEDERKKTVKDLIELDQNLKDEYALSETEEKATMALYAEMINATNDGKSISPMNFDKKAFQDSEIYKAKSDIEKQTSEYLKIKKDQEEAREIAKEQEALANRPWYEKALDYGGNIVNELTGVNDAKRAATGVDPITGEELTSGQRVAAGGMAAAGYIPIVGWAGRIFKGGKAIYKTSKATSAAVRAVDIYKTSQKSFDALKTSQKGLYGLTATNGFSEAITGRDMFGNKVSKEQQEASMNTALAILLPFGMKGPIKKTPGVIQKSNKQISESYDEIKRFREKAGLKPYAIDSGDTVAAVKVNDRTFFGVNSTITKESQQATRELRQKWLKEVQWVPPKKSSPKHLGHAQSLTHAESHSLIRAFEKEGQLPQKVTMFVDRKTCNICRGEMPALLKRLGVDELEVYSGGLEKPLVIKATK

Series [3] relates to T3, BcDa02 (Burkholderia cepacia).
T3 sequence: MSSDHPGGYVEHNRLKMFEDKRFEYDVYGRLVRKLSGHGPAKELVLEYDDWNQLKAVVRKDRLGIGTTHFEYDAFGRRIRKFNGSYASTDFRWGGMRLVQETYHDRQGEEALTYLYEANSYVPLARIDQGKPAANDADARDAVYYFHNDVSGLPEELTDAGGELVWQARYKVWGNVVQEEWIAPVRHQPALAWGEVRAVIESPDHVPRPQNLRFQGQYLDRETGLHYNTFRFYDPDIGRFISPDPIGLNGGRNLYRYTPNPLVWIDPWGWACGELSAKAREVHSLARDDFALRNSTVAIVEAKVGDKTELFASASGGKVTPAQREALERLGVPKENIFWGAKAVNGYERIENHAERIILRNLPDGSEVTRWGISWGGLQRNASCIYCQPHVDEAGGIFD

Series [4] relates to CbDa01 (unidentified). The following applies: CG 0.760, CH 0.022.
Series [5] relates to T4, CrDa01 (Clostridium roseum).
T4 sequence: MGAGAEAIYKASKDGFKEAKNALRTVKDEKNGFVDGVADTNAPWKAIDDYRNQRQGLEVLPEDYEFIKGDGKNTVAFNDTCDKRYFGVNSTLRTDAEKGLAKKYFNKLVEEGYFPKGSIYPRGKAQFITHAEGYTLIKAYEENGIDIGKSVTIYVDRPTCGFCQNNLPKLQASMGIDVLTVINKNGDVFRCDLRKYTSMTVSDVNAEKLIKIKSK

Series [6] relates to CseDa01 (Candidatus Scybalomonas e).
The subject of series [7] is T5, FlDa01 (Flavobacterium sp.).
T5 sequence: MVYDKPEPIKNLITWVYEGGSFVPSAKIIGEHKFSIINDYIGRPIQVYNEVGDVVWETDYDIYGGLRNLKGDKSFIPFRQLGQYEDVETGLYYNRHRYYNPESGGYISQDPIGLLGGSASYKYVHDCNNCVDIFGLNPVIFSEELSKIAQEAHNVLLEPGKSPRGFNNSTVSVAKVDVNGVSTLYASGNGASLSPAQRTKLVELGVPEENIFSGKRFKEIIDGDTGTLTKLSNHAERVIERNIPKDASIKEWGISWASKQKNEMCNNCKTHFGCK

In series [8] the test system is T6, LbsDa01 (Simiaoa sunii).
T6 sequence: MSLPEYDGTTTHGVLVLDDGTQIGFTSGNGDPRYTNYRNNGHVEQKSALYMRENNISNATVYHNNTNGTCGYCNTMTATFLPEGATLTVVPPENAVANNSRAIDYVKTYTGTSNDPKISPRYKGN

Series [9] concerns T7, MGYPDa20 (unidentified).
T7 sequence: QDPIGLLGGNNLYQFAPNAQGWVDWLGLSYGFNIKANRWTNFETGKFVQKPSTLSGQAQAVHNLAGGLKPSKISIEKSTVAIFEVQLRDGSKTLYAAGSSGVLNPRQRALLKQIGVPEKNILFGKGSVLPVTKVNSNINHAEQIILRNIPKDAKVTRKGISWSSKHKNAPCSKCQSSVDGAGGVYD
The conditions noted are these: 5mC 0.049, 5hmC 0.021.

Series [10] relates to T8, MGYPDa23 (unidentified).
T8 sequence: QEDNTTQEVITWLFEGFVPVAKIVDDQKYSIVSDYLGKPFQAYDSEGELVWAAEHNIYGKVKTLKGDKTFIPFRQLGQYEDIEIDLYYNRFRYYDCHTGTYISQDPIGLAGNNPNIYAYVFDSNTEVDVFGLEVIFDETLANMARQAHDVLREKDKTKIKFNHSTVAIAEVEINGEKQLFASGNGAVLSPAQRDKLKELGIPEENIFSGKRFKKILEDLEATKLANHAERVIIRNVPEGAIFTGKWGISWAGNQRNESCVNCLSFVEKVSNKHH

The subject of series [11] is MmgDa02. The following applies: CG 0.446, CH 0.002.
Series [12] relates to d22_Cd4_PeDa01.

As for “unmodified dsDNA (E. coli C2566 genomic)”, the activity (fraction deaminated) in series [1] stood at 0.992; in series [2] it was 0.612; in series [3], 0.772; in series [4], 0.24; in [5], 0.811; in series [6], 0.998. In addition, the activity (fraction deaminated) in [7] is 0.928; in series [8], 0.889; in series [9] it was 0.857; in [10], 0.935; in series [11] it was 0.133; in [12], 0.641.
